Experimental data published in patent US9283300B2, “Use of midkine protein and the protein-containing medical device” (GENERAL REGENERATIVES, LTD, priority 2009, dated 2016).

Columns and labels:
[1] = tested on: cartilage of normal mouse (knee-joint articular, ear elastic, tracheal, intervertebral disc); assay: rhMK effect on cartilage thickness of normal mice (subcutaneous injection, histology); type: in vivo, C57BL/6J mice; details: for Thickness of cartilage, Ear elastic cartilage / Thickness of cartilage, Femoral condyle / Thickness of cartilage, Intervertbral disc (T2-3): normal mouse, mean ± SD
Description: Method. 8-weeks-old male C57BL/6J mice were injected subcutaneously with recombinant human MK (rhMK) or control saline. The injection volume was 0.5 ml, given daily for a week. The mice were grouped (3 animals per group): Saline (NS) group, rhMK groups injected with various dosages at 10, 33, 100, 300, 900 μg/kg. Rats were injected with saline or rhMK (175 μg/kg) daily for a week. Rabbits were injected with saline or rhMK (92.5 μg/kg) daily for two week. Histological observation and evaluation. The knee joint tissues of all mice and rats were fixed in 10% (v/v) formalin for 1 day, the tissues of rabbits were fixed for 2 days. The fixed tissues were subjected to demineralization in liquid (7% AlCl3.6H2O, 5% methanoic acid, 8.5% HCl) 4 days for mouse and rats issues, and 10 days for rabbit tissues. The demineralized tissues were subjected to dehydration by gradient ethanol, and treated for transparency by xylene, and embedded in wax. Tissue sections were prepared by the paraffin slicing machine (Laica), and stained with hemotoxylin/eosin or Safranine O/fast green staining. Slides were observed under microscope and analyzed. The thickness of cartilage tissues were measured by the vernier caliper on microscope. Three tissue sections from each sample were measured and analyzed statisticaly. The distance between surface of cartilage to subchondral tide line was measured at ½ position of femoral condyle to denote the thickness of knee-joint cartilage. The thickness of cartilage at central part of ears was measured to denote the thickness of ear elastic cartilage. The distance between out surface of annulus to nucleus of the intervertebral disc was measured to denote the thickness of thoracic intervertebral disc (T2-3). The injection dose of rhMK: mice was injected subcutaneously 300 μg/kg daily for a week; rats were injected 175 μg/kg daily for a week; and New Zealand rabbits was injected 92.5 μg/kg daily for two weeks. Three animals per group were analyzed.

[2] = tested on: rat primary articular chondrocyte; assay: MTT proliferation assay, primary chondrocytes in monolayer; type: cell-based; details: for light absorbance at 490 nm in MTT assay: Articular chondrocyte, 48 h, mean ± SD
Description: (§1) 1. Preparation of primary chondrocyte. The 8-week-old male SD rats were sacrificed under sterile conditions. The articular cartilage, fibrocartilage and elastic cartilage tissue were isolated from the femur joints, meniscus and outer ear respectively using a scalpel. The isolated cartilage were cut into small pieces, washed twice with phosphate buffered saline (PBS), and digested with trypsin (0.25% (w/v) trypsin/0.02% (w/v) EDTA) at 37° C. for 30 min. The articular cartilage and elastic cartilage were further digested with 0.2% type II collagenase for additional 16 h, and the fibrocartilage were further digested with 0.15% type I collagenase for additional 16 h. After digestion, three chondrocytes were passed through 100 μm filter (Falcon, USA) into 15 ml centrifuge tubes, centrifuged at room temperature at 2000 rpm for 5 min. Cells were resuspended in DMEM containing 10% FBS (fetal bovine serum). Trypan blue staining of the freshly isolated cells was used to monitor the percentage of live cells under the microscope. When the number of live cells is more than 95%, it was used for subsequent experiments.
(§2) 2. MTT assay. Three types of primary chondrocytes were suspended at a density of 5×10^4 cells/ml in DMEM containing 10% FBS. Cells were seeded into a 96-well plate (100 μl per well) and cultured at 37° C. under 5% CO2 for 48 h. The cells were washed with serum-free DMEM medium once. Different concentrations of rhMK (0.5, 1.0, 3.0, 5.0, 9.0 μg/ml) in DMEM (containing 0.5% FBS) were added to each well and the cells were cultured for additional 48 h. After incubation, the medium was replaced with 100 μl serum-free DMEM medium and 20 μl MTT solution (0.5 mg/ml, in PBS), incubated at 37° C. under 5% CO2 for 4 h. After removing the liquid, 120 μl DMSO was added to dissolve the MTT crystals by shaking for 1 min on a micro-plate oscillator. Light absorbance at 490 nm was measured using a microplate reader (BIO-TEK, USA).

[3] = tested on: rat primary fibrochondrocyte; assay: as above; type: cell-based; details: for light absorbance at 490 nm in MTT assay: Fibrochondrocyte, 48 h, mean ± SD
Description: as §1, §2

[4] = tested on: rat primary auricular (ear elastic cartilage) chondrocyte; assay: as above; type: cell-based; details: for light absorbance at 490 nm in MTT assay: Auricular chondrocyte, 48 h, mean ± SD
Description: as §1, §2

[5] = Mouse, rhMK 300 μg/kg s.c. daily for a week
[6] = rhMK 10 μg/kg s.c. daily for one week
[7] = rhMK 33 μg/kg s.c. daily for one week
[8] = rhMK 100 μg/kg s.c. daily for one week
[9] = rhMK 300 μg/kg s.c. daily for one week
[10] = rhMK 900 μg/kg s.c. daily for one week

B1: rhMK: recombinant human midkine mature protein (SEQ ID NO.1) expressed in E. coli and purified by ion-exchange chromatography (protein, listed as Homo sapiens)
chain: MKKKDKVKKGGPGSECAEWAWGPCTPSSKDCGVGFREGTCGAQTQRIRCRVPCNWKKEFGADCKYKFENWGACDGGTGTKVRQGTLKKARYNAQCQETIRVTKPCTPKTKAKAKAKKGKGKD
- Cartilage thickness, Ear [1, 5]: 58.5 ± 19.6 µm
- Cartilage thickness, Femoral condyle [1, 5]: 195 ± 9.9 µm
- Cartilage thickness, Intervertbral disc (T2-3) [1, 5]: 201 ± 17.2 µm
- Cartilage thickness, Trachea [1, 5]: 114 ± 18 µm
- effective dose that promoted the growth of all three categories of cartilages ([1]; mice, s.c. daily for a week): 300 µg/kg/day
- minimum effective dose, articular cartilage and ear elastic cartilage ([1]; mice, s.c. daily for a week): 10 µg/kg/day
- Thickness of cartilage, Ear elastic cartilage [1, 6]: 47.6 ± 4.7 μm
- Thickness of cartilage, Femoral condyle [1, 6]: 152 ± 2.7 μm
- Thickness of cartilage, Intervertbral disc (T2-3) [1, 6]: 193.8 ± 25.2 μm
- Thickness of cartilage, Ear elastic cartilage [1, 7]: 46.2 ± 5.6 μm
- Thickness of cartilage, Femoral condyle [1, 7]: 156.4 ± 8.1 μm
- Thickness of cartilage, Intervertbral disc (T2-3) [1, 7]: 206.2 ± 29.4 μm
- Thickness of cartilage, Ear elastic cartilage [1, 8]: 48.9 ± 5.5 μm
- Thickness of cartilage, Femoral condyle [1, 8]: 172.4 ± 11.1 μm
- Thickness of cartilage, Intervertbral disc (T2-3) [1, 8]: 193.8 ± 3.1 μm
- Thickness of cartilage, Ear elastic cartilage [1, 9]: 58.5 ± 19.6 μm
- Thickness of cartilage, Femoral condyle [1, 9]: 195.3 ± 9.9 μm
- Thickness of cartilage, Intervertbral disc (T2-3) [1, 9]: 200.7 ± 17.2 μm
- Thickness of cartilage, Ear elastic cartilage [1, 10]: 51.6 ± 5.6 μm
- Thickness of cartilage, Femoral condyle [1, 10]: 200.0 ± 7.0 μm
- Thickness of cartilage, Intervertbral disc (T2-3) [1, 10]: 217.1 ± 6.0 μm
- light absorbance at 490 nm in MTT assay ([2]; rhMK 0.5 μg/ml): 0.33 ± 0.02
- light absorbance at 490 nm in MTT assay ([2]; rhMK 1.0 μg/ml): 0.40 ± 0.01
- light absorbance at 490 nm in MTT assay ([2]; rhMK 3.0 μg/ml): 0.38 ± 0.01
- light absorbance at 490 nm in MTT assay ([2]; rhMK 5.0 μg/ml): 0.30 ± 0.01
- light absorbance at 490 nm in MTT assay ([2]; rhMK 9.0 μg/ml): 0.39 ± 0.01
- lowest effective dose of rhMK (proliferation, MTT) ([2]; articular chondrocytes, monolayer): 1 µg/mL
- light absorbance at 490 nm in MTT assay ([3]; rhMK 0.5 μg/ml): 0.42 ± 0.02
- light absorbance at 490 nm in MTT assay ([3]; rhMK 1.0 μg/ml): 0.43 ± 0.02
- light absorbance at 490 nm in MTT assay ([3]; rhMK 3.0 μg/ml): 0.47 ± 0.00
- light absorbance at 490 nm in MTT assay ([3]; rhMK 5.0 μg/ml): 0.45 ± 0.00
- light absorbance at 490 nm in MTT assay ([3]; rhMK 9.0 μg/ml): 0.45 ± 0.00
- lowest effective dose of rhMK (proliferation, MTT) ([3]; fibrochondrocyte, monolayer): 3 µg/mL
- light absorbance at 490 nm in MTT assay ([4]; rhMK 0.5 μg/ml): 0.52 ± 0.05
- light absorbance at 490 nm in MTT assay ([4]; rhMK 1.0 μg/ml): 0.54 ± 0.02
- light absorbance at 490 nm in MTT assay ([4]; rhMK 3.0 μg/ml): 0.56 ± 0.01
- light absorbance at 490 nm in MTT assay ([4]; rhMK 5.0 μg/ml): 0.56 ± 0.02
- light absorbance at 490 nm in MTT assay ([4]; rhMK 9.0 μg/ml): 0.56 ± 0.02
- lowest effective dose of rhMK (proliferation, MTT) ([4]; ear elastic cartilage cells, monolayer): 0.5 µg/mL
